B1: EEHEE_rd4_0647 (parent)
chain: MQVTWGNVTVTFSNPEEAKKYAEKVARKLGGQVELHNGQFRIK

Variants of: B1
Experiment: folding stability dG (cDNA display proteolysis); higher = more stable
Conditions: PBS, room temperature

Variant	folding stability dG [kcal/mol]
MKVTWGNVTVTFSNPEEAKKYAEKVARKLGGQVELHNGQFRIK [Q2K]	2.94
MWVTWGNVTVTFSNPEEAKKYAEKVARKLGGQVELHNGQFRIK [Q2W]	1.97
MLVTWGNVTVTFSNPEEAKKYAEKVARKLGGQVELHNGQFRIK [Q2L]	2.55
NQVTWGNVTVTFSNPEEAKKYAEKVARKLGGQVELHNGQFRIK [M1N]	2.45
IQVTWGNVTVTFSNPEEAKKYAEKVARKLGGQVELHNGQFRIK [M1I]	3.13
AQVTWGNVTVTFSNPEEAKKYAEKVARKLGGQVELHNGQFRIK [M1A]	2.6
MQVTWGNVTVTFSNPEEAKKYAEKVARKLGGQVELHNGQFRIR [K43R]	2.98
MQVTWGNVTVTFSNPEEAKKYAEKVARKLGGQVELHNGQFRIF [K43F]	2.96
MQVTWGNVTVTFSNPEEAKKYAEKVARKLGGQVELHNGQFRIE [K43E]	2.28
MQVTWGNVTVTFSNPEEAKKYAEKVARKLGGQVELHNGQFRIV [K43V]	3.52
MQVTWGNVTVTFSNPEEAKKYAEKVARKLGIQVELHNGQFRIK [G31I]	2.01
MQVTWGNVTVTFSNPEEAIKYAEKVARKLGGQVELHNGQFRIK [K19I]	2.42
MQVTWGNVTVTFSNPEEASKYAEKVARKLGGQVELHNGQFRIK [K19S]	2.12
MQVTWINVTVTFSNPEEAKKYAEKVARKLGGQVELHNGQFRIK [G6I]	1.59
MQVTWQNVTVTFSNPEEAKKYAEKVARKLGGQVELHNGQFRIK [G6Q]	1.99
MQVTWMNVTVTFSNPEEAKKYAEKVARKLGGQVELHNGQFRIK [G6M]	2.32
MQVTWGNVTVTFSNPEEAKKYAEKVADKLGGQVELHNGQFRIK [R27D]	2.18
MQVTWGNVTVTFSNPEEAKKYAEKVAYKLGGQVELHNGQFRIK [R27Y]	2.41
MQVTWGNVTVTFSNPEEAKKYAEKVAHKLGGQVELHNGQFRIK [R27H]	2.51
MQVTWGNVTVTFSNPEEAKKYAEKVAKKLGGQVELHNGQFRIK [R27K]	2.88

Variant	folding stability dG [kcal/mol]
MQVTWGNVTVTFSNPEEAKKYAEFVARKLGGQVELHNGQFRIK [K24F]	3.2
MQVTWGNVTVTFSNPEEAKKYAEKVARKLGGQVEHHNGQFRIK [L35H]	2.1
MQVTWGNVTVTFSNPEEAKKYAEKVARKLGGQVEAHNGQFRIK [L35A]	2.09
MQVTWGNVTVTFSNPEEAKKYAEKVARKLGGQVEVHNGQFRIK [L35V]	2.83
MQVTWGNVTVTFSNPEEAKKYAEKVARKLGGFVELHNGQFRIK [Q32F]	3.08
MQVTWGNLTVTFSNPEEAKKYAEKVARKLGGQVELHNGQFRIK [V8L]	2.45
MQVTWGNPTVTFSNPEEAKKYAEKVARKLGGQVELHNGQFRIK [V8P]	0.417
MQVTWGNKTVTFSNPEEAKKYAEKVARKLGGQVELHNGQFRIK [V8K]	2.57
MQVTWGNSTVTFSNPEEAKKYAEKVARKLGGQVELHNGQFRIK [V8S]	2.01
MQVTWGNVTVTFSNEEEAKKYAEKVARKLGGQVELHNGQFRIK [P15E]	2.54
MQVTWGNVTVTFSNPEERKKYAEKVARKLGGQVELHNGQFRIK [A18R]	0.219
MQVTWGNVTVTFSNPEEPKKYAEKVARKLGGQVELHNGQFRIK [A18P]	-0.247
MQVTWGNVTVTFSNPEESKKYAEKVARKLGGQVELHNGQFRIK [A18S]	0.985
MQVTWGNVTVTFSNPEEMKKYAEKVARKLGGQVELHNGQFRIK [A18M]	0.885
MQVTWGNVTVTFQNPEEAKKYAEKVARKLGGQVELHNGQFRIK [S13Q]	2.71
MQVTWGNVTVTFLNPEEAKKYAEKVARKLGGQVELHNGQFRIK [S13L]	2.57
MQVTWGNVTVTFINPEEAKKYAEKVARKLGGQVELHNGQFRIK [S13I]	2.52
MQVTWGNVTVTFSNPEEAKKYAEKVARKLGGQVELHNGQHRIK [F40H]	1.07
MQVTWGNVTVTFSNPEEAKKYAEKVARKLGGQVELHNGQMRIK [F40M]	1.95
MQVTWGNVTVTFSNPEEAKKYAEKVARKLGGQVELHNGQDRIK [F40D]	0.455

Variant	folding stability dG [kcal/mol]
MQVTWGNVTVTFSNPEEAKKYAEKVARKLGGQVSLHNGQFRIK [E34S]	2.23
MQVTWGNVTVTFSNPEEAKKYAEKVARKLGGQVPLHNGQFRIK [E34P]	0.384
MQVTWGNVTVTFSNPEEAKKYAEKVARKLGGQVDLHNGQFRIK [E34D]	2.11
MQVTWGNVTVTFSNPEEAKKYAEKVARKLGGQVKLHNGQFRIK [E34K]	1.73
MQVTWGNVTVTFSNPEEAKKYAEKVARKLGGQVELHNMQFRIK [G38M]	1.65
MQVTWGNVTVTFSNPEEAKKYAEKVARKLGGQVELHNTQFRIK [G38T]	1.36
MQVTWGNVTVTFSNPEEAKKYAEKVARKLGGQVELHNLQFRIK [G38L]	1.46
MQVTWGNVKVTFSNPEEAKKYAEKVARKLGGQVELHNGQFRIK [T9K]	2.02
MQVTWGNVGVTFSNPEEAKKYAEKVARKLGGQVELHNGQFRIK [T9G]	0.945
MQVTWGNVVVTFSNPEEAKKYAEKVARKLGGQVELHNGQFRIK [T9V]	2.84
MQVTWGNVNVTFSNPEEAKKYAEKVARKLGGQVELHNGQFRIK [T9N]	1.62
MQVTWGNVCVTFSNPEEAKKYAEKVARKLGGQVELHNGQFRIK [T9C]	3.2
MQVTWGNVAVTFSNPEEAKKYAEKVARKLGGQVELHNGQFRIK [T9A]	1.85
MQVRWGNVTVTFSNPEEAKKYAEKVARKLGGQVELHNGQFRIK [T4R]	2.76
MQVTWGNVTVTFSNPEEAKKYAEKVARKLIGQVELHNGQFRIK [G30I]	1.34
MQVTWGNVTVTFSNPEEAKKYAEKVARKLDGQVELHNGQFRIK [G30D]	1.91
MQVTWGNVTVTFSNPEEAKKYAEKVARKLYGQVELHNGQFRIK [G30Y]	1.81
MQVTWGNVTVTFSNPEEAKKYAEKVARKLFGQVELHNGQFRIK [G30F]	1.9
MQVTWGNVTVTFSNPEEAKKYAEKVARKLHGQVELHNGQFRIK [G30H]	2.53
